Laboratory results reported in patent US6509165.

Biological target: RT1.D (rat MHC class II molecule) (rat)
Experiment: cell-based or functional assay

Work on Ox-17 (anti-RT1.D antibody) yielded an inhibition of proliferation of PI-specific T cells to 20 ug/ml PI peptide of 22 to 25%.
